In PMC9219861:

Molecular target: ULK1 (UniProt O75385)
Assay: FLAG co-IP, ULK1 blot
Details: reference: Flag-CHK2 WT, EBSS; sites T68

- binding against the reference: weaker
Substance: CHK2 (from UniProt O96017) Flag-CHK2 T68A, EBSS
